Results reported in patent US20090208538A1 (ROCKEFELLER UNIVERSITY, published 2009).

B1: cdr2 218-226 TMEEEYGLV (peptide)
peptide: TMEEEYGLV
B2: cdr2 113-121 LSLTETIEC (peptide)
peptide: LSLTETIEC
B3: cdr2 171-179 FVYDHVFAE (peptide)
peptide: FVYDHVFAE
B4: cdr2 128-136 HLQSQVEEL (peptide)
peptide: HLQSQVEEL
B5: cdr2 121-129 CLQTNIDHL (peptide)
peptide: CLQTNIDHL
B6: cdr2 372-380 DSLSHKAVQ (peptide)
peptide: DSLSHKAVQ
B7: cdr2 125-133 NIDHLQSQV (peptide)
peptide: NIDHLQSQV
B8: cdr2 288-296 QSLLEEMFL (peptide)
peptide: QSLLEEMFL
B9: cdr2 111-119 KILSLTETI (peptide)
peptide: KILSLTETI
B10: cdr2 352-360 QYSALKVKY (peptide)
peptide: QYSALKVKY
B11: cdr2 173-181 YDHVFAEKI (peptide)
peptide: YDHVFAEKI
B12: cdr2 79-87 QHAKVYEQL (peptide)
peptide: QHAKVYEQL
B13: cdr2 338-346 VKQRGISLL (peptide)
peptide: VKQRGISLL
B14: cdr2 52-60 MYTTNQEQL (peptide)
peptide: MYTTNQEQL
B15: cdr2 169-177 QHFVYDHVF (peptide)
peptide: QHFVYDHVF
B16: cdr2 282-290 PFKEPSQSL (peptide)
peptide: PFKEPSQSL
B17: cdr2 316-324 SSLAGSDIV (peptide)
peptide: SSLAGSDIV
B18: cdr2 64-72 EYLTKQVEL (peptide)
peptide: EYLTKQVEL
B19: cdr2 266-274 PFVNGVEKL (peptide)
peptide: PFVNGVEKL
B20: cdr2 425-433 LFKEIFSCI (peptide)
peptide: LFKEIFSCI
B21: cdr2 421-429 EYKALFKEI (peptide)
peptide: EYKALFKEI
B22: cdr2 422-430 YKALFKEIF (peptide)
peptide: YKALFKEIF
B23: cdr2 58-66 EQLQEIEYL (peptide)
peptide: EQLQEIEYL
B24: cdr2 271-279 VEKLVPDSL (peptide)
peptide: VEKLVPDSL

target: T1, HLA-A*0201 (human); experiment: iTopia binding;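 note: each peptide tested for binding to HLA-A2 molecules immobilized on plates, using a commercial screening kit run per its supplied protocol and reagents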
T1 construct: also called HLA-A2.1; HLA A2.1

Binder	binding vs positive control [%]
B1	> 30
B2	> 30
B3	> 30
B4	> 30
B5	> 30
B6	> 30
B7	> 30
B8	> 30
B9	> 30

target: T1, HLA-A*0201; experiment: iTopia affinity;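 note: peptide affinity for plate-bound HLA-A2 molecules (iTopia system), with ED50 derived from an eight-point serial peptide dilution series run under binding assay conditions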

Binder	ED50 [µM]
B1	6.3
B2	0.95
B3	10
B4	10
B5	20
B6	9
B7	6
B8	30
B9	7

target: T1, HLA-A*0201; experiment: iTopia off-rate;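 note: Half-life of peptide complexes with plate-bound HLA-A2, peptides loaded 18 h at 21 C, washed, then held at 37 C over several time points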

Binder	t1/2
B1	1.27
B2	0.51
B3	5.5
B4	7.7
B5	2.4
B6	6.3
B7	1.3
B8	5.44
B9	10.5

target: HLA-A*2402 (human); experiment: iTopia affinity;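 note: peptide binding to HLA-A*2402 measured in iTopia kit format across eight serial peptide dilutions, ED50 derived from the resulting titration curve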

Binder	ED50 [µM]
B10	3.1
B11	18
B12	10
B13	10
B14	0.54
B15	3.1
B16	0.49
B17	43
B18	0.65
B19	1.4
B20	0.075
B21	0.44
B22	1.5
B23	3.4
B24	8.8
B9	1.5

target: HLA-A*2402 (human); experiment: iTopia off-rate

Binder	t1/2
B10	0.35
B11	0.75
B12	0.25
B13	1.15
B14	1.46
B15	0.21
B16	1.25
B17	1.32
B18	1.72
B19	0.49
B20	1.11
B21	1.63
B22	1.6
B23	1.47
B24	1.02
B9	0.82

target: T1, HLA-A*0201; experiment: iTopia net score;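 note: combined score from peptide binding, ED₅₀ and half-life of peptide complexes with plate-bound HLA-A2 molecules, computed by a proprietary formula in iTopia software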

Binder	iScore
B1	0.166
B2	0.187
B3	0.282
B4	0.323
B5	0.176
B6	0.262
B7	0.166
B8	0.178
B9	0.512

target: HLA-A*2402 (human); experiment: iTopia net score;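 note: iScore from iTopia software combining peptide binding, affinity over a dilution series and off-rate after warming to body temperature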

Binder	iScore
B10	0.098
B11	0.089
B12	0.058
B13	0.172
B14	0.441
B15	0.097
B16	0.496
B17	0.081
B18	0.444
B19	0.218
B20	0.529
B21	0.505
B22	0.357
B23	0.142
B24	0.092
B9	0.261
